Key:
Test in all cases: ITC
[1] = target: NDD(MlnE)+MlnKR6 (Bacillus amyloliquefaciens FZB42) (UniProt A7Z474)
[2] = target: NDD(MlnD)+MlnKR4 (Bacillus amyloliquefaciens FZB42) (UniProt A7Z473)
[3] = target: NDD(MlnG)+MlnKR9 (Bacillus amyloliquefaciens FZB42) (UniProt A7Z476)

A Kd [1] of 800 nM was found for “MlnKS6+CDD(MlnD) (from UniProt A7Z473 1-2902) (domain or fragment)” in this work.
A Kd [2] of 1800 nM was found for “MlnDH4+CDD(MlnC) (from UniProt A7Z472 1-1590) (domain or fragment)” in this work.
A Kd [3] of 9000 nM was found for “MlnDH9+CDD(MlnF) (from UniProt A7Z475 1-1903) (domain or fragment)” in this work.

Reference: article PMC5460766
